The results in this text go back to patent publication US20030219825A1.

The assay concerns the target melanocortin-1 receptor (MC1R) (human) (UniProt Q01726). The assay can be described thus: cell-based or functional assay. The conditions noted are these: scale: response value.
UniProt Q01726, sequence (Q01726 whole entry): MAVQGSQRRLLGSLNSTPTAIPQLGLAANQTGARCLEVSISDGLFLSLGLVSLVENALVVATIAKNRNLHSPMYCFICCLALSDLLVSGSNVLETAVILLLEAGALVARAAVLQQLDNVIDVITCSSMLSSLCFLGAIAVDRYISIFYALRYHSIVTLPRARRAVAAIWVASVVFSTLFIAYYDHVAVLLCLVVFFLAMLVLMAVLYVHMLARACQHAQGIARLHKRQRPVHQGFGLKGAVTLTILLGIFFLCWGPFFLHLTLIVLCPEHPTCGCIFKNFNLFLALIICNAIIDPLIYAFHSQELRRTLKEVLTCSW

Take “4-L-norleucine-7-D-phenylalanine-alpha melanocyte stimulating hormone (from UniProt P01189 138-150) (peptide)”: the maximal response value (z value minus background z value, luminescence, 6xCRE-luciferase reporter lawn) was 25.
